Measurements as given in US9428586B2, “Heparanase splice variant” (COMPUGEN LTD, priority 2010, dated 2016).

System: Src
Assay: Src phosphorylation (immunoblot, densitometry) in 293 cells
Type: cell-based, human
Settings: over expressing 293 cells, serum-free
Experimental: FIG. 3. T5 augments Src phosphorylation. A. Over expression. CAG myeloma (left) and 293 (right) cells infected with heparanase (Hepa), T5, or control empty vector (Vo) were grown in the absence (-) or presence (+) of heparin (50 μg/ml) under serum-free conditions. Total cell lysates were subjected to immunoblotting applying anti-heparanase 1453 (upper and second panels), anti-phospho-Src (p-Src, third panels), anti-Src (fourth panels) anti-phospho-Erk (p-Erk, fifth panels), and anti-Erk2 (sixth panels) antibodies. Src phosphorylation index was calculated by densitometry analysis of phosphorylated Src levels divided by the total Src values. […] B. Gene silencing. Parental 293 cells were transfected with anti-heparanase, anti-T5, or control siRNAs. Total RNA was extracted and RT-PCR analysis was performed applying T5 (upper panel), heparanase (Hepa, second panel) and GAPDH (third panel) specific primers. Corresponding cell lysates were subjected to immunoblotting applying phospho-Src (p-Src, fourth panel), Src (fifth panel), phospho-Erk (p-Erk, sixth panel) and Erk2 (seventh panel) antibodies. Src phosphorylation index was calculated as above and is shown graphically in the lower panel. Note decreased Src phosphorylation levels upon T5 down regulation. […]

B1: T5: novel splice variant of heparanase; truncated, enzymatically inactive 169 amino acid protein (protein, listed as Homo sapiens)
chain: MLLRSKPALPPPLMLLLLGPLGPLSPGALPRPAQAQDVVDLDFFTQEPLHLVSPSFLSVTIDANLATDPRFLILLGSPKLRTLARGLSPAYLRFGGTKTDFLIFDPKKESTFEERSYWQSQVNQDICKYGSIPPDVEEKLRLEWPYQEQLLLREHYQKKFKNSTYSSKK
  Src phosphorylation enhancement vs control Vo cells: ~4 fold
